Laboratory results: paper PMC7511445 (Journal of immunology (Baltimore, Md. : 1950), 2020)
Numbering of substitutions follows the chain as printed. Names may count otherwise.

B1: phosphorylated full-length human IRF-3 E388A (natural protein, UniProt Q14653 1-427, looked up)
chain: MGTPKPRILPWLVSQLDLGQLEGVAWVNKSRTRFRIPWKHGLRQDAQQEDFGIFQAWAEATGAYVPGRDKPDLPTWKRNFRSALNRKEGLRLAEDRSKDPHDPHKIYEFVNSGVGDFSQPDTSPDTNGGGSTSDTQEDILDELLGNMVLAPLPDPGPPSLAVAPEPCPQPLRSPSLDNPTPFPNLGPSENPLKRLLVPGEEWEFEVTAFYRGRQVFQQTISCPEGLRLVGSEVGDRTLPGWPVTLPDPGMSLTDRGVMSYVRHVLSCLGGGLALWRAGQWLWAQRLGHCHTYWAVSEELLPNSGHGPDGEVPKDKEGGVFDLGPFIVDLITFTEGSGRSPRYALWFCVGESWPQDQPWTKRLVMVKVVPTCLRALVEMARVGGASSLANTVDLHISNSHPLSLTSDQYKAYLQDLVEGMDFQGPGES
modifications: phosphorylated in vitro by GST-mTBK1; the phosphorylated residues are not listed
B2: phosphorylated full-length human IRF-3 S339A (natural protein, UniProt Q14653 1-427, looked up)
chain: B1 chain with S339A, A388E
modifications: phosphorylated in vitro by GST-mTBK1; the phosphorylated residues are not listed
B3: phosphorylated full-length human IRF-3 R285A/K313A (natural protein, UniProt Q14653 1-427, looked up)
chain: B1 chain with R285A, K313A, A388E
modifications: phosphorylated in vitro by GST-mTBK1; the phosphorylated residues are not listed
B4: phosphorylated full-length human IRF-3 K313A (natural protein, UniProt Q14653 1-427, looked up)
chain: B1 chain with K313A, A388E
modifications: phosphorylated in vitro by GST-mTBK1; the phosphorylated residues are not listed
B5: phosphorylated full-length human IRF-3 H290A/K313A (natural protein, UniProt Q14653 1-427, looked up)
chain: B1 chain with H290A, K313A, A388E
modifications: phosphorylated in vitro by GST-mTBK1; the phosphorylated residues are not listed
B6: phosphorylated full-length human IRF-3 H288A (natural protein, UniProt Q14653 1-427, looked up)
chain: B1 chain with H288A, A388E
modifications: phosphorylated in vitro by GST-mTBK1; the phosphorylated residues are not listed
B7: phosphorylated full-length human IRF-3 R285A (natural protein, UniProt Q14653 1-427, looked up)
chain: B1 chain with R285A, A388E
modifications: phosphorylated in vitro by GST-mTBK1; the phosphorylated residues are not listed
B8: phosphorylated full-length human IRF-3 H290A (natural protein, UniProt Q14653 1-427, looked up)
chain: B1 chain with H290A, A388E
modifications: phosphorylated in vitro by GST-mTBK1; the phosphorylated residues are not listed
B9: phosphorylated full-length human IRF-3 H288A/H290A/K313A (natural protein, UniProt Q14653 1-427, looked up)
chain: B1 chain with H288A, H290A, K313A, A388E
modifications: phosphorylated in vitro by GST-mTBK1; the phosphorylated residues are not listed
B10: phosphorylated full-length human IRF-3 S396A (natural protein, UniProt Q14653 1-427, looked up)
chain: B1 chain with A388E, S396A
modifications: phosphorylated in vitro by GST-mTBK1; the phosphorylated residues are not listed

Biological target: the molecule itself
Test: SEC

Row | Protein | binding result
1 | B1 | binds
2 | B2 | binds
3 | B3 | binds
4 | B4 | binds
5 | B5 | binds
6 | B6 | binds
7 | B7 | binds
8 | B8 | binds
9 | B9 | binds

Biological target: the molecule itself
Test: native gel or EMSA

Row | Protein | binding result
10 | B10 | binds
